Reference: publication PMC5299547 (Analytical Chemistry, 2017)

Molecular target: T1, tryptophan synthase, beta subunit (Salmonella typhimurium, UniProt P0A2K1 2-397)
T1 sequence: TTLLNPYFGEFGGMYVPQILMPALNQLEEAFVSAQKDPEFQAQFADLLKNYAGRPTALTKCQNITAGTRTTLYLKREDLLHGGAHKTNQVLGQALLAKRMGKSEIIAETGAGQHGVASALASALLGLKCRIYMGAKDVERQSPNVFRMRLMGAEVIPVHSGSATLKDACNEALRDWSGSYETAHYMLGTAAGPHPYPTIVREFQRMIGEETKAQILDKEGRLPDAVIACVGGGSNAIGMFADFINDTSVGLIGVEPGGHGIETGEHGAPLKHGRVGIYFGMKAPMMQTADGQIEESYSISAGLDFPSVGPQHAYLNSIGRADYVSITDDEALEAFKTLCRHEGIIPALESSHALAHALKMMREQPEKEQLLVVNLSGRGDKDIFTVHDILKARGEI
Test: native MS; 10 μM purified complex buffer-exchanged in 200 mM ammonium acetate, electrosprayed (Synapt G2Si); subcomplexes generated in solution with 10–40% methanol, DMSO or acetonitrile
Conditions: both partners purified

B1: tryptophan synthase, alpha subunit (natural protein, Salmonella typhimurium)
chain: MERYENLFAQLNDRREGAFVPFVTLGDPGIEQSLKIIDTLIDAGADALELGVPFSDPLADGPTIQNANLRAFAAGVTPAQCFEMLALIREKHPTIPIGLLMYANLVFNNGIDAFYARCEQVGVDSVLVADVPVEESAPFRQAALRHNIAPIFICPPNADDDLLRQVASYGRGYTYLLSRSGVTGAENRGALPLHHLIEKLKEYHAAPALQGFGISSPEQVSAAVRAGAAGAISGSAIVKIIEKNLASPKQMLAELRSFVSAMKAASRA
B1: binds.
